Key:
HLA-A*01:01 = test: IEDB peptide-MHC binding, purified MHC/competitive/radioactivity; filed as Kd, often an IC50 or EC50 that approximates it; ≥ and ≤ were set here for values at or beyond the usual limits of such assays
HLA-A*26:01 = test: as above
HLA-A*29:02 = test: as above
HLA-A*30:02 = test: as above
HLA-A*24:02 = test: as above
HLA-A*23:01 = test: as above
HLA-A*32:01 = test: as above
HLA-A*03:01 = test: as above
HLA-A*11:01 = test: as above
HLA-A*68:01 = test: as above
HLA-A*33:01 = test: as above
HLA-A*31:01 = test: as above
HLA-B*58:01 = test: IEDB peptide-MHC binding, purified MHC/direct/fluorescence; filed as Kd, often an IC50 or EC50 that approximates it; ≥ and ≤ were set here for values at or beyond the usual limits of such assays; conditions: source organism: Bacillus mycoides
HLA-B*57:01 = test: as above; conditions: source organism: Bacillus mycoides
HLA-B*44:02 = test: IEDB peptide-MHC binding, purified MHC/competitive/radioactivity; filed as Kd, often an IC50 or EC50 that approximates it; ≥ and ≤ were set here for values at or beyond the usual limits of such assays
HLA-B*44:03 = test: as above
[1] = source organism: SARS coronavirus Tor2
[2] = source organism: Dengue virus 2 Jamaica/1409/1983
[3] = source organism: Mammarenavirus lassaense
[4] = source organism: Mammarenavirus tacaribeense
[5] = source organism: Lassa virus GA391
[6] = source organism: Dengue virus 4 Dominica/814669/1981
[7] = source organism: Dengue virus 3 Martinique/1243/1999
[8] = source organism: Vaccinia virus WR
[9] = source organism: Dengue virus 1 Singapore/S275/1990
[10] = source organism: Dengue virus 4 Philippines/H241/1956
[11] = source organism: Mammarenavirus whitewaterense
[12] = source organism: Dengue virus 1 Brazil/97-11/1997
[13] = source organism: Mammarenavirus machupoense

## LSFKELLVY
HLA-A*01:01; [1]
  Kd: 0.0853 µM
HLA-A*26:01; [1]
  Kd: 10.9 µM
HLA-A*29:02; [1]
  Kd: 0.00155 µM
HLA-A*30:02; [1]
  Kd: 0.0508 µM
HLA-A*24:02; [1]
  Kd: 9.23 µM
HLA-A*23:01; [1]
  Kd: 2.49 µM

## SGCVVSWKNK
HLA-A*32:01; [2]
  Kd: 9.64 µM

## PEDPIEVALY
HLA-A*01:01; [3]
  Kd: ≥ 70.4 µM
HLA-A*26:01; [3]
  Kd: ≥ 69.7 µM
HLA-A*29:02; [3]
  Kd: 10.1 µM
HLA-A*30:02; [3]
  Kd: 1.22 µM
HLA-A*24:02; [3]
  Kd: ≥ 70.3 µM
HLA-A*23:01; [3]
  Kd: ≥ 70 µM

## YCDPKRFFL
HLA-A*01:01; [4]
  Kd: ≥ 29.1 µM
HLA-A*26:01; [4]
  Kd: ≥ 77.9 µM
HLA-A*29:02; [4]
  Kd: ≥ 78.9 µM
HLA-A*30:02; [4]
  Kd: ≥ 76.9 µM
HLA-A*24:02; [4]
  Kd: 11.3 µM
HLA-A*23:01; [4]
  Kd: 7.53 µM

## YCNYSRYWY
HLA-A*01:01; [5]
  Kd: ≥ 34.4 µM
HLA-A*26:01; [5]
  Kd: ≥ 77.9 µM
HLA-A*29:02; [5]
  Kd: 1.23 µM
HLA-A*30:02; [5]
  Kd: 0.818 µM
HLA-A*24:02; [5]
  Kd: ≥ 77.5 µM
HLA-A*23:01; [5]
  Kd: ≥ 36.9 µM

## TAEDMLNPNY
HLA-A*01:01; [1]
  Kd: 1.04 µM
HLA-A*26:01; [1]
  Kd: 17.6 µM
HLA-A*29:02; [1]
  Kd: 5.5 µM
HLA-A*30:02; [1]
  Kd: 1.07 µM
HLA-A*24:02; [1]
  Kd: ≥ 70.3 µM
HLA-A*23:01; [1]
  Kd: ≥ 70 µM

## SAAAYFVGY
HLA-A*01:01; [1]
  Kd: 0.311 µM
HLA-A*03:01; [1]
  Kd: 0.0897 µM
HLA-A*11:01; [1]
  Kd: 0.0328 µM
HLA-A*26:01; [1]
  Kd: 0.0855 µM
HLA-A*68:01; [1]
  Kd: 0.106 µM
HLA-A*29:02; [1]
  Kd: 0.0655 µM
HLA-A*30:02; [1]
  Kd: 0.0177 µM
HLA-A*33:01; [1]
  Kd: ≥ 21.5 µM
HLA-A*31:01; [1]
  Kd: ≥ 26.3 µM
HLA-A*24:02; [1]
  Kd: 3.87 µM
HLA-A*23:01; [1]
  Kd: 6.1 µM

## SIIFINYTM
HLA-A*32:01; source organism: Vaccinia virus Copenhagen
  Kd: 0.00651 µM

## ITFQSILGY
HLA-B*58:01
  Kd: 0.0573 µM
HLA-B*57:01
  Kd: 0.0707 µM

## KMFESTYRG
HLA-A*32:01; [6]
  Kd: 0.907 µM

## AWMVHRQWFF
HLA-A*24:02; [7]
  Kd: 0.0047 µM
HLA-B*44:02; [7]
  Kd: 2.21 µM
HLA-A*23:01; [7]
  Kd: 0.00948 µM

## DLIKKSDAKR
HLA-A*03:01; [8]
  Kd: 6.37 µM
HLA-A*11:01; [8]
  Kd: 12.5 µM
HLA-A*68:01; [8]
  Kd: 0.0139 µM
HLA-A*29:02; [8]
  Kd: 0.0287 µM
HLA-A*33:01; [8]
  Kd: 0.00897 µM
HLA-A*31:01; [8]
  Kd: 0.00396 µM

## WFITQRNFF
HLA-A*01:01; [1]
  Kd: 1.09 µM
HLA-A*26:01; [1]
  Kd: 0.172 µM
HLA-A*29:02; [1]
  Kd: 0.0136 µM
HLA-A*30:02; [1]
  Kd: 0.137 µM
HLA-A*24:02; [1]
  Kd: ≥ 32.5 µM
HLA-A*23:01; [1]
  Kd: 2.73 µM

## LTGYGTVTM
HLA-A*32:01; [2]
  Kd: 15.4 µM

## HEHKSTWHY
HLA-B*44:03; [9]
  Kd: 0.00911 µM
HLA-B*44:02; [9]
  Kd: 0.0198 µM

## GPDDQIGYY
HLA-A*01:01; [1]
  Kd: ≥ 79.4 µM
HLA-A*26:01; [1]
  Kd: 11 µM
HLA-A*29:02; [1]
  Kd: 6.49 µM
HLA-A*30:02; [1]
  Kd: 2.45 µM
HLA-A*24:02; [1]
  Kd: ≥ 77.6 µM
HLA-A*23:01; [1]
  Kd: ≥ 77.8 µM

## ESDSKPQKV
HLA-A*01:01; [3]
  Kd: 0.18 µM
HLA-A*26:01; [3]
  Kd: ≥ 77.9 µM
HLA-A*29:02; [3]
  Kd: ≥ 78.9 µM
HLA-A*30:02; [3]
  Kd: ≥ 76.9 µM
HLA-A*24:02; [3]
  Kd: ≥ 77.5 µM
HLA-A*23:01; [3]
  Kd: ≥ 77.7 µM

## TGCAVSWSGK
HLA-A*32:01; [10]
  Kd: 8.44 µM

## AFNCTFEYI
HLA-A*01:01; [1]
  Kd: 1.4 µM
HLA-A*26:01; [1]
  Kd: 0.0861 µM
HLA-A*29:02; [1]
  Kd: 0.322 µM
HLA-A*30:02; [1]
  Kd: 1.4 µM
HLA-A*24:02; [1]
  Kd: ≥ 70.3 µM
HLA-A*23:01; [1]
  Kd: 9.36 µM

## TELKYSWKTW
HLA-B*44:03; [2]
  Kd: 0.0239 µM
HLA-A*32:01; [2]
  Kd: 4.27 µM
HLA-B*44:02; [2]
  Kd: 0.0379 µM

## FYVSSIFLHL
HLA-A*29:02; [11]
  Kd: 0.0109 µM
HLA-A*24:02; [11]
  Kd: 0.114 µM
HLA-A*23:01; [11]
  Kd: 0.00855 µM

## AIMFFPRTI
HLA-A*32:01; [8]
  Kd: 0.00112 µM

## KEEESEGAIW
HLA-B*44:03; [7]
  Kd: 0.0909 µM
HLA-B*44:02; [7]
  Kd: 0.0584 µM

## AETWMSSEG
HLA-B*44:02; [10]
  Kd: 0.425 µM

## KAADVTWEEE
HLA-A*32:01; source organism: Dengue virus 3 Singapore/8120/1995
  Kd: ≥ 33.1 µM

## MEIRPVKEK
HLA-B*44:03; [12]
  Kd: 1.01 µM
HLA-B*44:02; [12]
  Kd: 0.64 µM

## QCGDPSSFEY
HLA-A*01:01; [13]
  Kd: 0.5 µM
HLA-A*26:01; [13]
  Kd: ≥ 69.7 µM
HLA-A*29:02; [13]
  Kd: 0.6 µM
HLA-A*30:02; [13]
  Kd: 1.58 µM
HLA-A*24:02; [13]
  Kd: ≥ 70.3 µM
HLA-A*23:01; [13]
  Kd: ≥ 68.8 µM

## AYLRKHFSM
HLA-A*01:01; [1]
  Kd: ≥ 78.1 µM
HLA-A*26:01; [1]
  Kd: ≥ 77.9 µM
HLA-A*29:02; [1]
  Kd: 6.29 µM
HLA-A*30:02; [1]
  Kd: ≥ 75 µM
HLA-A*24:02; [1]
  Kd: ≥ 83.3 µM
HLA-A*23:01; [1]
  Kd: ≥ 24.4 µM

## VDNVHTWTEQ
HLA-A*32:01; [6]
  Kd: ≥ 34.1 µM

From the Immune Epitope Database (IEDB)
